The values that follow are results of earlier work, collected in publication PMC13292882.

As usually defined, the Kd is the concentration at which binding is half-saturated.

Data set [1] has as its target PCNA (Homo sapiens) (UniProt P12004). The note with it: cited from earlier work.
Data set [2] deals with RPA (Homo sapiens) (UniProt P27694). Description: competition peptide displacement. The note with it: cited from earlier work.
Chain of RPA (Homo sapiens) (P27694 2-616, chain 1 of 3): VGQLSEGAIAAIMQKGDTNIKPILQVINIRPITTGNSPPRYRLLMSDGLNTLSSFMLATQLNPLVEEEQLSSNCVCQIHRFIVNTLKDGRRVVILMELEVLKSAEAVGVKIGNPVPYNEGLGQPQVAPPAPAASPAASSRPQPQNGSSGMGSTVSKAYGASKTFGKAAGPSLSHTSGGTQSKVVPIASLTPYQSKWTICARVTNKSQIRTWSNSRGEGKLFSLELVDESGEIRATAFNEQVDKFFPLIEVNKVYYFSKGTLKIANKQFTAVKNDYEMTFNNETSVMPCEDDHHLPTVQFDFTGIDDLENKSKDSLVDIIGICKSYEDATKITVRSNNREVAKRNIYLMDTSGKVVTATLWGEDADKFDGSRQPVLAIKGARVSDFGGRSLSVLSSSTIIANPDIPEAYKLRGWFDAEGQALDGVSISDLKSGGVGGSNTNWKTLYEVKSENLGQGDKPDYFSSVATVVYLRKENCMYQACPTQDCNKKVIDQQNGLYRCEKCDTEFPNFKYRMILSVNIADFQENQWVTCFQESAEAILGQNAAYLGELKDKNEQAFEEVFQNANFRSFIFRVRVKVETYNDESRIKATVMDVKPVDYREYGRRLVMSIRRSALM
Chain of RPA (Homo sapiens) (P15927 whole entry, chain 2 of 3, further chain): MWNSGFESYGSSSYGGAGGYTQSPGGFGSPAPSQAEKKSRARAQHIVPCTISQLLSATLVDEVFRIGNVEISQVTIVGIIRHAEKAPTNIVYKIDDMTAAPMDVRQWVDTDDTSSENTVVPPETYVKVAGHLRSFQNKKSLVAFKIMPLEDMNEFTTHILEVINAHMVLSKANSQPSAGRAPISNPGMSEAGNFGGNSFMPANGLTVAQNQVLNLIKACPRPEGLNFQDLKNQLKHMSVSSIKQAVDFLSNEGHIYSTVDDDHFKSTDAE
Chain of RPA (Homo sapiens) (P35244 2-121, chain 3 of 3, further chain): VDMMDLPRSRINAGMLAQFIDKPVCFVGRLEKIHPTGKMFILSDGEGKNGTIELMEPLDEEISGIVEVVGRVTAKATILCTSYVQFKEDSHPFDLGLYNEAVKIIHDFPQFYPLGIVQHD

Chain of UNG2 (P13051 whole entry): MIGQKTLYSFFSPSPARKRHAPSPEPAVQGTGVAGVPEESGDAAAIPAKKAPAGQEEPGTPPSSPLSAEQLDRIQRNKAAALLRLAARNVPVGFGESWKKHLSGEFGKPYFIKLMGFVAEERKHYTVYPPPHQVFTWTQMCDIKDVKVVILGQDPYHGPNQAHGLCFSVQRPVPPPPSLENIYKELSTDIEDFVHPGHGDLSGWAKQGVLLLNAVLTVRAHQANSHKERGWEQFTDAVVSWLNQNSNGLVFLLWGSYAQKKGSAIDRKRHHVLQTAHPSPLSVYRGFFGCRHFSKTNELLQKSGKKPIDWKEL
Chain of PCNA (Homo sapiens) (P12004 whole entry): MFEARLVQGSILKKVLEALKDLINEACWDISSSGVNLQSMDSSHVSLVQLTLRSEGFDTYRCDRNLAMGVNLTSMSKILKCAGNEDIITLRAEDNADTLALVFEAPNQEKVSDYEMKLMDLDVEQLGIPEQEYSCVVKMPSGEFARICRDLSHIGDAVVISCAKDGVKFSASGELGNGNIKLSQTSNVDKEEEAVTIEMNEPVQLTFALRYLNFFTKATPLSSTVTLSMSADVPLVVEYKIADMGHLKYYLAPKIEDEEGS

For UNG2 (from UniProt P13051), the Kd is 1000 nM in data set [1] and 3000 nM in data set [2].
